Test [1] addresses T1, recombinant peptide consisting of amino acids 262-534 of tenascin-W (human, UniProt Q9UQP3 262-534).
T1 construct: also called recombinant tenascin-W peptide used to isolate the G10 antibody
T1 sequence: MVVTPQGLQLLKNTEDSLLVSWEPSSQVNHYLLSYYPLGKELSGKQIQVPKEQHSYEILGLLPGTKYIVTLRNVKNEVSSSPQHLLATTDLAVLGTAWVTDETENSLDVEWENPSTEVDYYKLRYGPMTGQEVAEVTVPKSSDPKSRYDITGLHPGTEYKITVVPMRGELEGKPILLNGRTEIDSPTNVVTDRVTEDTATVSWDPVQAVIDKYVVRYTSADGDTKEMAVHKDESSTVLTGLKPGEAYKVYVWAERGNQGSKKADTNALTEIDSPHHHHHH
The test is described as follows: Biacore, tenascin-W 262-534 on a CM-5 chip, scFv. As to the method: A monomeric fraction of the purified G10 antibody was analyzed by surface plasmon resonance (BIAcore, 3000 system). A recombinant peptide consisting of amino acids 262-534 of tenascin-W was covalently coupled to the surface of the CM-5 sensor Chip. Twenty-five microliters of each sample were injected at the flow rate of 10 μL/min. The regeneration of the chip was performed with 5 μL of 10 mM glycine-HCl, pH 2.5 (GE Healthcare).
(In general: SPR reads the build-up and loss of mass on a sensor chip optically.)

The target in test [2] is T2, catalytic domain of human MMP3 (amino acids 100-273), recombinant (human, UniProt P08254 100-273, biotinylated (in the ELISA)).
T2 construct: range 100-273; also called HsMMP3; human MMP3 catalytic domain
Kind of test: ELISA on biotinylated catalytic domain, scFv.

T2 sequence (P08254 100-273 limits assumed): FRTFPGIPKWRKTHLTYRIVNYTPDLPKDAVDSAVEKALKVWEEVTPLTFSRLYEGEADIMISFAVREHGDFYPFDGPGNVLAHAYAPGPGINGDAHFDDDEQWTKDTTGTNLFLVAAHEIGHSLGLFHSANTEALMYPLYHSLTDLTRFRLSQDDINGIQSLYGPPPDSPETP

B1: antibody G10 in scFv format (scFv, V domains shown)
VH: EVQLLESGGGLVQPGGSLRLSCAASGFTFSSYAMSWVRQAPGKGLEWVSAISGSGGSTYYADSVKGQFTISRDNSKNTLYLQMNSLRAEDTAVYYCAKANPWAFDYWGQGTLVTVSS
VL: SELTQDPAVSVALGQTVRITCQGDSLRSYYASWYQQKPGQAPVLVIYGKNNRPSGIPDRFSGSSSGNTASLTITGAQAEDEADYYCNSSGSQRSPVVFGGGTKLTVL
notes: The monomeric fraction was used in Biacore
B1: in test [1], the binding result is “binds”.

B2: anti-human MMP3 antibody CH01 in scFv format (scFv, V domains shown)
VH: EVQLLESGGGLVQPGGSLRLSCAASGFTFSPYAMSWVRQAPGKGLEWVSAITGQGGVTYYADSVKGRFTISRDNSKNTLYLQMNSLRAEDTAVYYCAKISSFHFDYWGQGTLVTVSS
VL: EIVLTQSPGTLSLSPGERATLSCRASQSVSSHHLAWYQQKPGQAPRLLIYDASSRATGIPDRFSGSGSGTDFTLTISRLEPEDFAVYYCQQPRGAPTTFGQGTKVEIK
notes: The scFv is myc-tagged (detected with anti-myc 9E10); also called scFv(CH01)
On to B2, for which the binding result in test [2] is “binds”.
